Source: paper PMC4194032 (Cell, 2014)

T1: Heh2-VN (budding yeast, UniProt Q03281 1-663)
T1 sequence (looked up): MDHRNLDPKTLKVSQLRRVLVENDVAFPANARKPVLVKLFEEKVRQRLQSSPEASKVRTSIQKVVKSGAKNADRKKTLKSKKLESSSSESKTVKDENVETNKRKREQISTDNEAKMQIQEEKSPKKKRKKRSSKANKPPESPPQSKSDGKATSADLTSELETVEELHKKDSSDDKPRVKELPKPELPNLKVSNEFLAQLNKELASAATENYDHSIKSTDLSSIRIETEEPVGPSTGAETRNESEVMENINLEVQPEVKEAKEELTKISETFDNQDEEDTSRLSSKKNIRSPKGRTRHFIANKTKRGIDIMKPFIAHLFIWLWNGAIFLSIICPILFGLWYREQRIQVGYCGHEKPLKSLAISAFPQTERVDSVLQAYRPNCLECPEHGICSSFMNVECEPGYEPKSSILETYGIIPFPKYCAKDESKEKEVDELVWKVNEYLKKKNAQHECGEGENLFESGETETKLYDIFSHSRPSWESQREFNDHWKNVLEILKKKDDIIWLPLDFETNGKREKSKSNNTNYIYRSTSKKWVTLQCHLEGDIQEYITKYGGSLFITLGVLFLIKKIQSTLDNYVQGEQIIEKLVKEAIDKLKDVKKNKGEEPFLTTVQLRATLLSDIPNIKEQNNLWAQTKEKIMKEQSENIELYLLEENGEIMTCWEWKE

T2: Snf7-VN (budding yeast, UniProt P39929 1-240)
T2 sequence (looked up): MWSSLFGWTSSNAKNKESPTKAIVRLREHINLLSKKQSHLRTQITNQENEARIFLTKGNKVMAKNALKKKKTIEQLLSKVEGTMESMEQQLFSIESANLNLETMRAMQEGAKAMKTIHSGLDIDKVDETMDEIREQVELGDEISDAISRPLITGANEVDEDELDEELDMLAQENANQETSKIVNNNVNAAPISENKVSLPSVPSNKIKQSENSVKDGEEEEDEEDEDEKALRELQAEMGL

B1: Snf7-VC (natural protein, budding yeast, UniProt P39929 1-240, looked up)
chain: T2 sequence (looked up)
B2: Vps20-VC (natural protein, budding yeast, UniProt Q04272 1-221, looked up)
chain: MGQKSSKVHITKTDRAILEVKRSKDEIHKFTRRTDNLILVEKSQLKDLIRKNPENYKSNMKVRFLLKRIHYQEHLLQQASDQLINLENMVSTLEFKMVEKQFINGLKNGNEILKKLNKEFSNVDELMDDVQDQIAYQNEINETLSRSLVGTSNYEDDLDKELDALESELNPEKMNNAKVANMPSTEGLPSLPQGEQTEQKEREEFATEERSDTKEPLALLS
B3: Bro1-VC (natural protein, budding yeast, UniProt P48582 1-844, looked up)
chain: MKPYLFDLKLKDTEKLDWKKGLSSYLKKSYGSSQWRTFYDEKATSELDHLRNNANGELAPSSLSEQNLKYYSFLEHLYFRLGSKGSRLKMDFTWYDAEYSSAQKGLKYTQHTLAFEKSCTLFNIAVIFTQIARENINEDYKNSIANLTKAFSCFEYLSENFLNSPSVDLQSENTRFLANICHAEAQELFVLKLLNDQISSKQYTLISKLSRATCNLFQKCHDFMKEIDDDVAIYGEPKWKTTVTCKLHFYKSLSAYYHGLHLEEENRVGEAIAFLDFSMQQLISSLPFKTWLVEFIDFDGFKETLEKKQKELIKDNDFIYHESVPAVVQVDSIKALDAIKSPTWEKILEPYMQDVANKCDSLYRGIIPLDVYEKESIYSEEKATLLRKQVEETETANLEYSSFIEFTNLPRLLSDLEKQFSDGNIFSNTDTQGQLMRDQIQTWCKFIQTNEFRDIEEQMNKIVFKRKQILEILSALPNDQKENVTKLKSSLVAASNSDEKLFACVKPHIVEINLLNDNGKIWKKFDEFNRNTPPQPSLLDIDDTKNDKILELLKQVKGHAEDLRTLKEERSRNLSELRDEINNDDITKLLIINKGKSDVELKDLFEVELEKFEPLSTRIEATIYKQSSMIDDIKAKLDEIFHLSNFKDKSSGEEKFLEDRKNFFDKLQEAVKSFSIFASDLPKGIEFYDSLFNMSRDLAERVRVAKQTEDSTANSPAPPLPPLDSKASVVGGPPLLPQKSAAFQSLSRQGLNLGDQFQNLKISAGSDLPQGPGIPPRTYEASPYAATPTMAAPPVPPKQSQEDMYDLRRRKAVENEERELQENPTSFYNRPSVFDENMYSKYSS

Experiments:
Assay in all cases: split reporter
Heh1-VN (budding yeast) = Heh1-VN (budding yeast) (UniProt Q03707)
Heh2-VN = biological target: T1, Heh2-VN
Snf7-VN = biological target: T2, Snf7-VN

Sequence of Heh1-VN (budding yeast) (Q03707 whole entry): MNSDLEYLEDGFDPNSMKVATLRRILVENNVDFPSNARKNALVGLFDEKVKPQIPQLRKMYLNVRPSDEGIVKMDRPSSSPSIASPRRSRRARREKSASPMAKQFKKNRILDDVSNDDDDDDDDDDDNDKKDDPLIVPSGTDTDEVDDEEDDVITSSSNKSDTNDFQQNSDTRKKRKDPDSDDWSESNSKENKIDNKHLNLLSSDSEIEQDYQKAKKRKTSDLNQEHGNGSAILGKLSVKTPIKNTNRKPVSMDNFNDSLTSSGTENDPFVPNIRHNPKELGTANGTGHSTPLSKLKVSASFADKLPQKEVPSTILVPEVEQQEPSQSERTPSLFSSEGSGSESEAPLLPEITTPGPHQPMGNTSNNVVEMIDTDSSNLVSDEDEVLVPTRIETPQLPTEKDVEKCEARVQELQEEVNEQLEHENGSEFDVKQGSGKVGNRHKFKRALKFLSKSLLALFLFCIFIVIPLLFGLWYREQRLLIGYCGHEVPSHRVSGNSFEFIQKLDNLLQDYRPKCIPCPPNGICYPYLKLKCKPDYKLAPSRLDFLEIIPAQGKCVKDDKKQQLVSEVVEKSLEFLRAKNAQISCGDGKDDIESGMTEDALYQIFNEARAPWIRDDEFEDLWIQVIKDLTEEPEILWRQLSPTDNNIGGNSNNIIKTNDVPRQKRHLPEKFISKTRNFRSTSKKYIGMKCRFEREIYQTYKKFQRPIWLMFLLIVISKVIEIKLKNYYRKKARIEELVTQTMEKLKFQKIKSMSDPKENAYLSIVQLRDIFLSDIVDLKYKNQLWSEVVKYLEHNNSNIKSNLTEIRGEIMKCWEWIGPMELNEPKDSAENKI

| Molecule | percent of cells with Venus fluorescence (Snf7-VN) | also measured |
| --- | --- | --- |
| Snf7-VC (from UniProt P39929 1-240) (natural protein) | – | percent of cells with Venus fluorescence (Heh1-VN (budding yeast)): 45 % of cells |
| B1 | – | percent of cells with Venus fluorescence (Heh2-VN): ~18 % of cells |
| B2 | ~90 % of cells | – |
| B3 | ~90 % of cells | – |
